The test addresses mB7H3 (endogenous mouse B7H3 on B16 and B78 cells) (mouse) (UniProt Q8VE98). The experiment in a line: flow cytometry on B16 cells (no GD2, mouse B7H3), 1 ug antibody per million cells, GAH PE; anti-GD2 antibody as control. Background: Flow cytometry measures light scatter and fluorescence of single cells or particles in a stream.

mB7H3 (endogenous mouse B7H3 on B16 and B78 cells) (mouse), sequence (Q8VE98 29-316 limits assumed): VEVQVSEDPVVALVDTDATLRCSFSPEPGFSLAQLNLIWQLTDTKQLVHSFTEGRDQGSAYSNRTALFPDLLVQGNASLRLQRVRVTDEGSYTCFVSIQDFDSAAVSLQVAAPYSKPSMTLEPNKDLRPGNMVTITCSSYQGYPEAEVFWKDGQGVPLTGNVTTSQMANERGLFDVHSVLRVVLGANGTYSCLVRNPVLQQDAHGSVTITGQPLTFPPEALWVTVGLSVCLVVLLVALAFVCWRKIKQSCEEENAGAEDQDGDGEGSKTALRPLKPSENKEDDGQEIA

Turning to Invenra Dinutuximab (antibody), the MFI amounted to 1 MFI.
